The text below walks through data of patent US10472605B2, “Serum-free medium” (National University of Ireland, Galway, priority 2014, dated 2019).

Assay [1] deals with MSC. The assay is described as follows: Attachment of MSC isolated in 10% FBS and re-attached under serum-free conditions. In kind it is cell-based. The conditions noted are these: after 18 hours in a serum-free environment; vitronectin 0.5 μg/ml pre-coating. The source says:
Tissue culture flasks were pre-coated with fibronectin (FN; black), hylauronic acid (HA; blue), vitronectin (VN; red) or laminin (LN; green) and cells were allowed to adhere in serum-free conditions. Controls include serum-free plating without the presence of an extra-cellular matrix (ECM) attachment factor and 10% FBS (grey). Results are representative of 3 biological replicates with n=2;
MSC were attached on tissue culture flasks in the presence of EGF (red) or on tissue culture plastic precoated with FN (purple) or in the presence of EGF on fibronectin coated plastic (green) and passaged every 3 days. Controls include serum free plating without the presence of an ECM attachment factor (blue) and 10% FBS (black). Results are representative of 3 biological replicates with n=2;
(§1) Proliferation of the MSC attached in the presence of basic fibroblast growth factor (bFGF2, FGF2) was also assessed after 6 days.

In assay [2] the test system is MSC. The assay is described as follows: Growth/proliferation of MSC isolated in 10% FBS and re-attached under serum-free conditions. In kind it is cell-based. The conditions noted are these: 5 ng/ml; over 3 passages, days 5, 10 and 15; fibronectin-coated. How it is done: Tissue culture flasks were pre-coated with FN (black), HA (blue), VN (red) or LN (green) and cells were allowed to adhere in serum-free conditions. Cell numbers were obtained after 5 days. Controls include serum-free plating without the presence of an ECM attachment factor and 10% FBS (grey). Results are representative of 3 biological replicates with n=2;
Cells were then cultured in the presence of growth factors and passaged every 5 days. Controls include serum free plating without growth factors and 10% FBS. Results are representative of 3 biological replicates with n=2;
Cells were then cultured in serum-free media containing FGF2 (5 ng/ml) in the presence of PGE2, cholesterol or lipoprotein for 5 days. Controls include serum free plating without growth factors 10% FBS (A). Cells were then cultured in the presence of lipoprotein and passaged every 5 days for 3 passages, controls include serum free plating without lipoprotein (B). Results are representative of 3 biological replicates with n=2;
as §1
Serum-free basal medium formulation was selected based on the literature describing low-serum cell culture of dental pulp stem cells (Tarle et al., 2010). […]

B1: vitronectin: extra-cellular matrix attachment factor used to pre-coat flasks (protein, UniProt P04004 20-478, looked up)
Vitronectin: DQESCKGRCTEGFNVDKKCQCDELCSYYQSCCTDYTAECKPQVTRGDVFTMPEDEYTVYDDGEEKNNATVHEQVGGPSLTSDLQAQSKGNPEQTPVLKPEEEAPAPEVGASKPEGIDSRPETLHPGRPQPPAEEELCSGKPFDAFTDLKNGSLFAFRGQYCYELDEKAVRPGYPKLIRDVWGIEGPIDAAFTRINCQGKTYLFKGSQYWRFEDGVLDPDYPRNISDGFDGIPDNVDAALALPAHSYSGRERVYFFKGKQYWEYQFQHQPSQEECEGSSLSAVFEHFAMMQRDSWEDIFELLFWGRTSAGTRQPQFISRDWHGVPGQVDAAMAGRIYISGMAPRPSLAKKQRFRHRNRKGYRSQRGHSRGRNQNSRRPSRATWLSLFSSEESNLGANNYDDYRMDWLVPATCEPIQSVFFFSGDKYYRVNLRTRRVDTVDPPYPRSIAQYWLGCPAPGHL
Turning to B1, the MSC attachment result in the assay with MSC [1] was “supported MSC attachment optimally”.

B2: FGF4: fibroblast growth factor 4 (protein, UniProt P08620 31-206, looked up)
Fibroblast growth factor 4: APTAPNGTLEAELERRWESLVALSLARLPVAAQPKEAAVQSGAGDYLLGIKRLRRLYCNVGIGFHLQALPDGRIGGAHADTRDSLLELSPVERGVVSIFGVASRFFVAMSSKGKLYGSPFFTDECTFKEILLPNNYNAYESYKYPGMFIALSKNGKTKKGNRVSPTMKVTHFLPRL
Turning to B2, the “MSC proliferation in serum free medium” value in the assay with MSC [2] is on record as “increased MSC proliferation”.
